Assay [1] deals with HLA-A*03:01. Nature of the assay: IEDB peptide-MHC binding, purified MHC/competitive/radioactivity; filed as Kd, often an IC50 or EC50 that approximates it; ≥ and ≤ were set here for values at or beyond the usual limits of such assays. To be noted: source organism: Vaccinia virus WR.
In assay [2] the target is HLA-A*11:01. Described as above. To be noted: source organism: Vaccinia virus WR.
In a further assay the target is HLA-A*29:02. The assay is described as above.
A further assay deals with HLA-A*31:01. The assay is described as above. The settings on record: source organism: Vaccinia virus WR.
The target of another assay is HLA-A*33:01. The assay is described as above. To be noted: source organism: Vaccinia virus WR.
The target of a further assay is HLA-A*68:01. Described as above. To be noted: source organism: Vaccinia virus WR.
The next assay concerns the target HLA-A*01:01. The description is as above. The settings on record: source organism: SARS coronavirus Tor2.
Another assay has as its target HLA-A*23:01. Described as above.
The next assay has as its target HLA-A*24:02. The assay is described as above.
In the next assay the target is HLA-A*26:01. The assay is described as above.
The target in the next assay is HLA-A*30:02. Described as above. The settings on record: source organism: SARS coronavirus Tor2.
The next assay addresses HLA-B*44:02. The assay is described as above.
The target of the next assay is HLA-B*44:03. Described as above.
Assay [3] concerns the target HLA-A*03:01. Nature of the assay: IEDB peptide-MHC binding, purified MHC/direct/fluorescence; filed as Kd, often an IC50 or EC50 that approximates it; ≥ and ≤ were set here for values at or beyond the usual limits of such assays. The settings on record: source organism: Bacillus licheniformis.
Assay [4] concerns the target HLA-A*11:01. Described as above. To be noted: source organism: Bacillus licheniformis.
A further assay has as its target HLA-B*15:01. The assay is described as above. To be noted: source organism: Bacillus licheniformis.
Where [5] appears, read: source organism: SARS coronavirus Tor2.
The mark [6] stands for this setting: source organism: Lymphocytic choriomeningitis virus (strain Armstrong).
[7] abbreviates: source organism: Dengue virus 3 Sri Lanka/1266/2000.
[8] abbreviates: source organism: Mammarenavirus whitewaterense.
[9] abbreviates: source organism: Mammarenavirus guanaritoense.
[10] abbreviates: source organism: Dengue virus 4 Dominica/814669/1981.
Setting [11] is: source organism: Dengue virus 4 Philippines/H241/1956.
Setting [12] is: source organism: Dengue virus 2 Jamaica/1409/1983.

For 21 sequences, Kd results are on record in the Immune Epitope Database (IEDB).

What is called pKd is the negative decadic logarithm of the Kd, by convention in mol/L.

pKd: −log10 of the molar value.

As for FSCGLSLQDY, the pKd was 6.01 with HLA-A*03:01 [1]; 6.57 with HLA-A*11:01 [2]; no more than 4.15 in the assay with HLA-A*29:02 (source organism: Vaccinia virus WR); 5.64 in the assay with HLA-A*31:01; 5.03 in the assay with HLA-A*33:01; 6.58 with HLA-A*68:01.

For the sequence PVSAMVRMY, the pKd with HLA-A*01:01 was 4.94; in the assay with HLA-A*23:01 (setting [5]) it was no more than 4.41; in the assay with HLA-A*24:02 (setting [5]), no more than 4.39; with HLA-A*26:01 (setting [5]), no more than 4.44; in the assay with HLA-A*29:02 (setting [5]), 5.56; in the assay with HLA-A*30:02 it was 5.04.

For IFWRNTNPI, the pKd in the assay with HLA-A*01:01 is no more than 4.11; in the assay with HLA-A*23:01 (setting [5]), 5.04; with HLA-A*24:02 (setting [5]) it was no more than 4.50; with HLA-A*26:01 (setting [5]), no more than 4.11; with HLA-A*29:02 (setting [5]), no more than 4.45; with HLA-A*30:02, no more than 4.10.

For the sequence VYMPASWVM, the pKd with HLA-A*01:01 is no more than 4.11; with HLA-A*23:01 (setting [5]) it was 5.27; in the assay with HLA-A*24:02 (setting [5]), 4.90; with HLA-A*26:01 (setting [5]), no more than 4.11; with HLA-A*29:02 (setting [5]), 4.83; in the assay with HLA-A*30:02 it was no more than 4.68.

Regarding CWLVTNGSYL, the pKd was 6.86 with HLA-A*23:01 (setting [6]), 6.08 with HLA-A*24:02 (setting [6]) and 5.54 in the assay with HLA-A*29:02 (setting [6]).

As to MEAQLVRQM, the results for the pKd with HLA-B*44:02 (setting [7]) and in the assay with HLA-B*44:03 (setting [7]) were 7.83 and 6.91, respectively.

With EFSSNVANY, the pKd with HLA-A*01:01 was 4.95; in the assay with HLA-A*23:01 (setting [5]), no more than 4.11; in the assay with HLA-A*24:02 (setting [5]), no more than 4.49; in the assay with HLA-A*26:01 (setting [5]), 5.54; with HLA-A*29:02 (setting [5]), 6.15; in the assay with HLA-A*30:02, 6.08.

In the case of SYKIGHHVEL, the pKd was 4.80 with HLA-A*23:01 (setting [8]), 4.89 with HLA-A*24:02 (setting [8]) and no more than 4.24 with HLA-A*29:02 (setting [8]).

For the sequence AMVRMYIFF, the pKd with HLA-A*01:01 was 4.73; with HLA-A*23:01 (setting [5]), 6.67; with HLA-A*24:02 (setting [5]), 5.35; with HLA-A*26:01 (setting [5]) it was 5.13; with HLA-A*29:02 (setting [5]) it was 6.34; with HLA-A*30:02 it was no more than 4.15.

Take SFKVGHHTNF: the results for the pKd in the assay with HLA-A*23:01 (setting [9]), with HLA-A*24:02 (setting [9]) and with HLA-A*29:02 (setting [9]) were 5.88, 4.96 and 6.09, respectively.

Take MELKYSWKT: the pKd with HLA-B*44:03 (source organism: Dengue virus 3 Martinique/1243/1999) is 6.46.

Turning to EYPIIGDEL, the pKd was no more than 4.11 with HLA-A*01:01; 4.79 with HLA-A*23:01 (setting [5]); 4.85 with HLA-A*24:02 (setting [5]); no more than 4.11 with HLA-A*26:01 (setting [5]); 6.75 with HLA-A*29:02 (setting [5]); 5.88 in the assay with HLA-A*30:02.

As for MSPGYVLGVF, the pKd with HLA-A*23:01 (setting [10]) is 6.00; with HLA-A*24:02 (setting [10]) it was 5.83; with HLA-A*26:01 (setting [10]), 5.80.

Regarding KEVALLRTYC, in the assay with HLA-B*44:03 (setting [11]), the pKd was 6.89.

For the sequence CTFLLNKEMY, the pKd with HLA-A*01:01 is 6.10; in the assay with HLA-A*23:01 (setting [5]) it was no more than 4.15; with HLA-A*24:02 (setting [5]), no more than 4.15; with HLA-A*26:01 (setting [5]) it was 5.03; with HLA-A*29:02 (setting [5]) it was 6.10; with HLA-A*30:02 it was 6.39.

Turning to GVGAPTTTY, the figures for the pKd with HLA-A*03:01 [3], in the assay with HLA-A*11:01 [4] and with HLA-B*15:01 were 5.13, 5.00 and 6.92, respectively.

With PWLSSKPEF, the pKd in the assay with HLA-A*23:01 (setting [11]) is 6.94.

For VYSDVETPHL, the pKd with HLA-A*01:01 was 6.52; in the assay with HLA-A*23:01 (setting [5]), 6.79; with HLA-A*24:02 (setting [5]), 6.61; with HLA-A*26:01 (setting [5]), no more than 4.16; with HLA-A*29:02 (setting [5]), 6.23; with HLA-A*30:02 it was 4.79.

For the sequence ETPHLMGWDY, the pKd with HLA-A*01:01 is 6.52; in the assay with HLA-A*23:01 (setting [5]), no more than 4.15; with HLA-A*24:02 (setting [5]), no more than 4.15; with HLA-A*26:01 (setting [5]) it was 8.31; in the assay with HLA-A*29:02 (setting [5]), 7.03; with HLA-A*30:02, 6.16.

As to QEHETSWHYD, the pKd with HLA-B*44:02 (setting [12]) is 6.80; with HLA-B*44:03 (setting [12]), 6.13.

On to GTFLCANEY, for which the pKd is 7.01 in the assay with HLA-A*01:01; no more than 4.44 in the assay with HLA-A*23:01 (setting [5]); 4.94 in the assay with HLA-A*24:02 (setting [5]); 6.58 with HLA-A*26:01 (setting [5]); 8.42 in the assay with HLA-A*29:02 (setting [5]); 9.39 in the assay with HLA-A*30:02.
